Results taken from US9579365B2, “Therapeutic ribonucleases” (Quintessence Biosciences, Inc., priority 2008, dated 2017).

Tests used:
RNA = assay: ribonuclease (enzyme) activity compared with native human RNase 1; type: biochemical
ribonuclease inhibitor = molecular target: T1, ribonuclease inhibitor (Homo sapiens, UniProt P13489); assay: ribonuclease inhibitor evasion; type: binding; settings: compared with QBI-119 and native human RNase 1
T1 sequence (P13489 1-461): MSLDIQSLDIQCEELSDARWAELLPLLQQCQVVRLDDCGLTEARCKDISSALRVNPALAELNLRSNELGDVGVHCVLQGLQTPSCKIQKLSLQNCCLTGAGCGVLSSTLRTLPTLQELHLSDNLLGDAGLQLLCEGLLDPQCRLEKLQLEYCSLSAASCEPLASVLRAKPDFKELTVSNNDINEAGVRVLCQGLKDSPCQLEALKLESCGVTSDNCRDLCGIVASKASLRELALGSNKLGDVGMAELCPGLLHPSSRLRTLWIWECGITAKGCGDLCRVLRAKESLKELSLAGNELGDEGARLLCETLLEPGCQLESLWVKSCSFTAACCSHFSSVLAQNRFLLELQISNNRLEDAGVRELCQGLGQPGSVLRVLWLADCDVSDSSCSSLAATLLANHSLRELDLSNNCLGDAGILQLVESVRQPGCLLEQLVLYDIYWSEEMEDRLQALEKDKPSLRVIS

B1: SEQ ID NO:1: native human RNase 1 with amino acid modifications R4C, G38R, R39G, N67R, G89R, S90R, and V118C (protein)
chain: KESCAKKFQRQHMDSDSSPSSSSTYCNQMMRRRNMTQRGCKPVNTFVHEPLVDVQNVCFQEKVTCKRGQGNCYKSNSSMHITDCRLTNRRRYPNCAYRTSPKERHIIVACEGSPYVPCHFDASVEDST
With B1 the “enzyme activity, comparison in words” value (RNA; compared with QBI-119 and native human RNase 1) was “inferior to QBI-119 and native human RNase 1”, the “fraction of the ribonuclease activity of native human RNase1” value (RNA; relative to native human RNase 1) was “less than 1%” and the “ribonuclease inhibitor evasion, comparison in words” value (ribonuclease inhibitor) was “inferior to QBI-119 and native human RNase 1”.
